{
  "source": "paper PMC3534942",
  "about": "(Virology, 2012)",
  "key": {"[1]": {"target": "HSV-1 gB730 (HSV-1 glycoprotein B ectodomain) (HSV-1) (UniProt P06437)", "assay": "SEC-MALS"}, "[2]": {"target": "the molecule itself", "assay": "mildly denaturing SDS-PAGE"}, "SEC-MALS": {"target": "the molecule itself", "assay": "SEC-MALS"}},
  "data": [
    {"molecule": "HSV-1 gB730 (HSV-1 glycoprotein B ectodomain) (from UniProt P06437 31-730) (domain or fragment)", "values": [
      {"measurement": "stoichiometry N", "setting": "[1]", "result": 3}
    ]},
    {"molecule": "HCMV gB706-CHis6 (HCMV strain AD169 glycoprotein B ectodomain, residues 25-706, C-terminal His6 tag) (domain or fragment) DPSSSTSHATSSTHNGSHTSRTTSAQTRSVYSQHVTSSEAVSHRANETIYNTTLKYGDVVGVNTTKYPYRVCSMAQGTDLIRFERNIICTSMKPINEDLDEGIMVVYKRNIVAHTFKVRVYQKVLTFRRSYAYIYTTYLLGSNTEYVAPPMWEIHHINKFAQCYSSYSRVIGGTVFVAYHRDSYENKTMQLIPDDYSNTHSTRYVTVKDQWHSRGSTWLYRETCNLNCMLTITTARSKYPYHFFATSTGDVVYISPFYNGTNRNASYFGENADKFFIFPNYTIVSDFGRPNAAPETHRLVAFLERADSVISWDIQDEKNVTCQLTFWEASERTIRSEAEDSYHFSSAKMTATFLSKKQEVNMSDSALDCVRDEAINKLQQIFNTSYNQTYEKYGNVSVFETSGGLVVFWQGIKQKSLVELERLANRSSLNITHRTRRSTSDNNTTHLSSMESVHNLVYAQLQFTYDTLRGYINRALAQIAEAWCVDQRRTLEVFKELSKINPSAILSAIYNKPIAARFMGDVLGLASCVTINQTSVKVLRDMNVKESPGRCYSRPVVIFNFANSSYVQYGQLGEDNEILLGNHRTEECQLPSLKIFIAGNSAYEYVDYLFKRMIDLSSISTVDSMIALDIDPLENTDFRVLELYSQKELRSSNVFDLEEIMREFNSYKQRVKYVEDKVVDPLPP", "values": [
      {"measurement": "binding result", "setting": "[2]", "result": "binds"}
    ]},
    {"molecule": "HCMV gB706-4M (HCMV strain AD169 glycoprotein B ectodomain, residues 25-706, Y155G/I156H/Y157R/W240A) (domain or fragment, N-linked glycosylation (mass difference of 22.9 kDa suggested that all 18 predicted N-linked glycosylation sites were glycosylated)) DPSSSTSHATSSTHNGSHTSRTTSAQTRSVYSQHVTSSEAVSHRANETIYNTTLKYGDVVGVNTTKYPYRVCSMAQGTDLIRFERNIICTSMKPINEDLDEGIMVVYKRNIVAHTFKVRVYQKVLTFRRSYAGHRTTYLLGSNTEYVAPPMWEIHHINKFAQCYSSYSRVIGGTVFVAYHRDSYENKTMQLIPDDYSNTHSTRYVTVKDQWHSRGSTALYRETCNLNCMLTITTARSKYPYHFFATSTGDVVYISPFYNGTNRNASYFGENADKFFIFPNYTIVSDFGRPNAAPETHRLVAFLERADSVISWDIQDEKNVTCQLTFWEASERTIRSEAEDSYHFSSAKMTATFLSKKQEVNMSDSALDCVRDEAINKLQQIFNTSYNQTYEKYGNVSVFETSGGLVVFWQGIKQKSLVELERLANRSSLNITHRTRRSTSDNNTTHLSSMESVHNLVYAQLQFTYDTLRGYINRALAQIAEAWCVDQRRTLEVFKELSKINPSAILSAIYNKPIAARFMGDVLGLASCVTINQTSVKVLRDMNVKESPGRCYSRPVVIFNFANSSYVQYGQLGEDNEILLGNHRTEECQLPSLKIFIAGNSAYEYVDYLFKRMIDLSSISTVDSMIALDIDPLENTDFRVLELYSQKELRSSNVFDLEEIMREFNSYKQRVKYVEDKVVDPLPP", "values": [
      {"measurement": "stoichiometry N", "setting": "SEC-MALS", "result": 3}
    ]}
  ]
}
